The record followed here is patent publication US20240116985A1 (published 2024).

Assay in all cases: cell-based or functional assay
The target in experiment [1] is T1, beta-catenin in DLD1 TCF/LEF luciferase reporter cells (UniProt P35222 1-781).
T1 sequence (looked up): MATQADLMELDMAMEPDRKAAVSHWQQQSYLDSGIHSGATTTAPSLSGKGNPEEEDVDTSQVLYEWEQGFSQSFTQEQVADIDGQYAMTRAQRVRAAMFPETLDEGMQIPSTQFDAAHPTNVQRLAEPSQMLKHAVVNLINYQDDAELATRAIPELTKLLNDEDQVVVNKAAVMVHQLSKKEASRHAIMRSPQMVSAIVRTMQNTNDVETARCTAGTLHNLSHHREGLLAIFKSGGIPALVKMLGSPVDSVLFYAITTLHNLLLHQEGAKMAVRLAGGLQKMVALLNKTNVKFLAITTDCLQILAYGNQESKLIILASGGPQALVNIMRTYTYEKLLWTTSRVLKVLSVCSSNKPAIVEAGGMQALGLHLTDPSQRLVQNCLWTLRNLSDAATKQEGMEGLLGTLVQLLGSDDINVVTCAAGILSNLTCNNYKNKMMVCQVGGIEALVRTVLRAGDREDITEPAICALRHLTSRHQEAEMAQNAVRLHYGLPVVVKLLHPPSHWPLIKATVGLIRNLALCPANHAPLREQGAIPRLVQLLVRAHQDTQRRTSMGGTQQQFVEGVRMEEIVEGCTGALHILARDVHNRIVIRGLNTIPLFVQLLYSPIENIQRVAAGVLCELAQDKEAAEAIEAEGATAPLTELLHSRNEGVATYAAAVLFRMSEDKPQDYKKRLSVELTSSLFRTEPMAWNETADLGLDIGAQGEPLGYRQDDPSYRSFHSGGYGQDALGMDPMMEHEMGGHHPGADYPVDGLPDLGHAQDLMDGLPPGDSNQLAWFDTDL

In a further experiment the target is T2, B-cat-Halo (UniProt P35222 1-781).
T2 sequence (looked up): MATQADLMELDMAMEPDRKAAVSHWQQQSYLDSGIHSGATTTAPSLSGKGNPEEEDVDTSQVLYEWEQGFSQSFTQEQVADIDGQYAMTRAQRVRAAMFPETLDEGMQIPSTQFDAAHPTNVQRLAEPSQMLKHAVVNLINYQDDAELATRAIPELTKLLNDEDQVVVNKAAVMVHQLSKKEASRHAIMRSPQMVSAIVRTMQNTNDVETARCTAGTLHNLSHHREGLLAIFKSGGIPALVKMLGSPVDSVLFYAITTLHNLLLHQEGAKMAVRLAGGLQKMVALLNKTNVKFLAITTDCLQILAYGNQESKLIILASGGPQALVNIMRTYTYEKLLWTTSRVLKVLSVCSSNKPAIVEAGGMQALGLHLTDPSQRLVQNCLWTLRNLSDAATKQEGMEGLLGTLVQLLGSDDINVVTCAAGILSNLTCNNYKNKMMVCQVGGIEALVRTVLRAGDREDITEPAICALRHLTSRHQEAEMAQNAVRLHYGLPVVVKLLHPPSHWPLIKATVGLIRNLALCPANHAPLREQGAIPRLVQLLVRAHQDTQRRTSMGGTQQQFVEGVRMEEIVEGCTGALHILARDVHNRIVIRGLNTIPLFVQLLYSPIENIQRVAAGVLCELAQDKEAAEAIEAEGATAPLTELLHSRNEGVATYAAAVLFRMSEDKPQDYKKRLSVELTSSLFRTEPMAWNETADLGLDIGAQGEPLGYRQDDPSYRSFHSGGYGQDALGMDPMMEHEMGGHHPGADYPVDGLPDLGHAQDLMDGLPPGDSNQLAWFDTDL

For experiment [2], the target named is T3, B-cat-Halo (beta-catenin HaloTag NanoBRET construct expressed in HEK293 cells) (UniProt P35222 1-781).
T3 sequence (looked up): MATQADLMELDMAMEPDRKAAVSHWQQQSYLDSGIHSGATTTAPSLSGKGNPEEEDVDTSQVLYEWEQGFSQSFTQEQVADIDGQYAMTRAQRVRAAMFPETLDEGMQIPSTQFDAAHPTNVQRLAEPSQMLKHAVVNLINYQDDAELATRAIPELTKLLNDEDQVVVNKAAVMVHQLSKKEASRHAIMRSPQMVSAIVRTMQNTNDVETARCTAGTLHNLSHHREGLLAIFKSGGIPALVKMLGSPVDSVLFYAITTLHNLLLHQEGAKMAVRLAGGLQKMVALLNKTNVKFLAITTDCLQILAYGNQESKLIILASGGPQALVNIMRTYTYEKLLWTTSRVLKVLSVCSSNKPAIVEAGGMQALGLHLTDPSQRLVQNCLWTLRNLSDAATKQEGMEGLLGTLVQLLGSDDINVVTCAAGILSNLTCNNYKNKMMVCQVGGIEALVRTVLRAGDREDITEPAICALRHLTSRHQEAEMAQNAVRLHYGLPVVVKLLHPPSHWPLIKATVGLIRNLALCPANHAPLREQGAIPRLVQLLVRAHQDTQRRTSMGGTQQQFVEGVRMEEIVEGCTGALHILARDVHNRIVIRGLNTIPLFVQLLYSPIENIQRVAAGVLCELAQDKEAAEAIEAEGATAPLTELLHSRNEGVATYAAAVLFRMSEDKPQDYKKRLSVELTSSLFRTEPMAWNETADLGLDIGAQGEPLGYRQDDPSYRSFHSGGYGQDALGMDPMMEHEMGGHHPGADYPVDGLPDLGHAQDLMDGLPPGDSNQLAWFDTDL

Experiment [3] has as its target T4, beta-catenin in DLD1 TCF/LEF luciferase reporter cells (UniProt P35222 1-781).
T4 sequence (looked up): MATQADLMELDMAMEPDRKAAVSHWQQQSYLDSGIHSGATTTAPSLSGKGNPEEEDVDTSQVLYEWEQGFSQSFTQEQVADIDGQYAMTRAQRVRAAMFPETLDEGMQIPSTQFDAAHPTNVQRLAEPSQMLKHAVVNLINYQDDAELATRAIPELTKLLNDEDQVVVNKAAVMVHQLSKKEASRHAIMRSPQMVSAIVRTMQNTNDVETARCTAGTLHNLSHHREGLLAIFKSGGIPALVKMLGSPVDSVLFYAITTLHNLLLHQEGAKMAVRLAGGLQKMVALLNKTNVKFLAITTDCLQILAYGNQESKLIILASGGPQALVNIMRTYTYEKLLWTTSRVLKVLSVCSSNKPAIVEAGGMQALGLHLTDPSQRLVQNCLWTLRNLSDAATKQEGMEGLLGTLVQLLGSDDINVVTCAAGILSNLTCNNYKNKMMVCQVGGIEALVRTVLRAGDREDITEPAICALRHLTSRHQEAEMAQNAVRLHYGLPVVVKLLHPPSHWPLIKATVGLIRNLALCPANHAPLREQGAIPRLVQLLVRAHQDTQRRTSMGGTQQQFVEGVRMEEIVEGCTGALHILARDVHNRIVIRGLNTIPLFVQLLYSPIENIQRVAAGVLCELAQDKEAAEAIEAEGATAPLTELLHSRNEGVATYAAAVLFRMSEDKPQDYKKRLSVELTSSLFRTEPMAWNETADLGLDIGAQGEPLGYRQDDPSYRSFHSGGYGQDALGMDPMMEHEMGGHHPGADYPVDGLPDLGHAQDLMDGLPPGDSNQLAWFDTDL
The source holds these as a separate data set.

In experiment [4] the target is T5, beta-catenin in DLD1 TCF/LEF luciferase reporter cells (UniProt P35222 1-781).
T5 sequence (looked up): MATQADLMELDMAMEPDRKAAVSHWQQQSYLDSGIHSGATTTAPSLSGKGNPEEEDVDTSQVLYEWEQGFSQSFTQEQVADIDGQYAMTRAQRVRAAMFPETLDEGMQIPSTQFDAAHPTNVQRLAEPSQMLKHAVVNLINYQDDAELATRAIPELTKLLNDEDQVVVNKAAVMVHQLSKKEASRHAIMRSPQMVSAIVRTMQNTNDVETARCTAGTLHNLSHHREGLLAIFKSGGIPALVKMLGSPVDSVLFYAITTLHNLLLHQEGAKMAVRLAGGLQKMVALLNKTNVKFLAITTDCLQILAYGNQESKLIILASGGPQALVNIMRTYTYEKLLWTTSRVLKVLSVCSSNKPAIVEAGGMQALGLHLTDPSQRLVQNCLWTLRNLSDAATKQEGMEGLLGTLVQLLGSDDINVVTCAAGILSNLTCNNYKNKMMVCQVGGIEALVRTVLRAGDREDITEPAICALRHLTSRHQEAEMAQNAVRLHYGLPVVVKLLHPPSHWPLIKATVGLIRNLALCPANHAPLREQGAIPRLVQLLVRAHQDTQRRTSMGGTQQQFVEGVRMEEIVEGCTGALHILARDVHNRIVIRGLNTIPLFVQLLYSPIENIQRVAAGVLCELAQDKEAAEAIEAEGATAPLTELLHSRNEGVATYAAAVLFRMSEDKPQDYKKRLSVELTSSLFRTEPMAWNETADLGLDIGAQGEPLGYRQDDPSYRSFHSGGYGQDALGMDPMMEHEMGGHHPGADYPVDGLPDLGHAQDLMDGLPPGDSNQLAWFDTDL
The source holds these as a separate data set.

Starred links: 1 amine or outer side, 2 acyl side, 3 side chain; linkers in the order of their positions; H or OH if unused. Positions of bridges follow the written chain, without caps; N, C: chain ends. Non-standard residues stand in square brackets, D forms with d. Primed or numbered codes have the meaning given here. PyrS2″ = (S)-3-amino-1-((pent-4-en-1-yloxy)carbonyl)pyrrolidine-3-carboxylic acid (stapling residue), C=CCCCOC(=O)N1CC[C@@](N[*:1])(C(=O)[*:2])C1; B5(18) = 2,2-bis(4-pentenyl)glycine (2-amino-2-(pent-4-en-1-yl)hept-6-enoic acid), stitching residue, C=CCCCC(CCCC=C)(N[*:1])C(=O)[*:2]; TfeGA = (S)-2-amino-3-((carboxymethyl)(2,2,2-trifluoroethyl)amino)propanoic acid, O=C([C@H](CN(CC(=O)[*:3])CC(F)(F)F)N[*:1])[*:2]; B5(3) = 2,2-bis(4-pentenyl)glycine (stitching residue), C=CCCCC(CCCC=C)(N[*:1])C(=O)[*:2]; Phe(2-Cl) = N[C@@H](Cc1ccccc1Cl)C(=O)O; Bta = N[C@@H](Cc1csc2ccccc12)C(=O)O; αAllylPro = C=CC[C@@]1(C(=O)O)CCCN1; tBuAla = CC(C)(C)C[C@H](N)C(=O)O; 3Thi = N[C@@H](Cc1ccsc1)C(=O)O

B1: I-1015 (peptide)
peptide: Ac-[αAllylPro]D[tBuAla][B5(18)]DDAAFT[PyrS2″][Phe(2-Cl)][Bta]S-NH2
modifications: staple 1-4, 4-11
Turning to B1, the “DLD1 4% Abs IC50” value in experiment [1] amounted to 5.7 µM. In addition, the “NanoBRET Abs IC50” value with B-cat-Halo was determined as 8.9 µM.

B2: Ac-PL3-Asp-Npg-B5-Asp-TfeGA-Ala-Ala-Phe-Leu-PyrS2-3Thi-BztA-Me2Gln-Ala-NH2 (peptide)
peptide: Ac-[αAllylPro]D[tBuAla][B5(3)]D[TfeGA]AAFL[PyrS2″][3Thi][Bta][Me2Gln]A-NH2
modifications: staple 1-4, 4-11
For the molecule B2, the “NanoBRET Abs IC50” value in experiment [2] came to 2.5 µM. Besides, the “DLD1 4% Abs IC50” value in experiment [3] stood at 1.4 µM.

B3: I-988 (peptide)
peptide: Ac-[αAllylPro]D[tBuAla][B5(3)]D[TfeGA]AAFF[PyrS2″]F[Bta]Q-NH2
modifications: staple 1-4, 4-11
For the molecule B3, the “DLD1 reporter assay Abs IC50” value in experiment [4] worked out at 5.2 µM.
